Assay results as given in patent EP4778941A1 (Jiangsu Hengrui Pharmaceuticals Co., Ltd., dated 2025).
Where a chain is given by its changes, count along the chain named.

Legend:
[1] = target: Human HER3 and MET proteins together on HER3/MET double-positive cells (human, UniProt P21860 20-1342; P08581 25-1390); assay: cell-based or functional assay
[2] = target: T1, Human MET protein on the cell surface (human, UniProt P08581 25-1390); assay: FACS on NCI-H1975 cells (MET single-positive), FIG. 3
T1 construct: whole, on cells; also called MET single-positive cells (NCI-H1975, NCI-H1703)

[3] = target: T2, Human HER3 protein on the cell surface (human, UniProt P21860 20-1342); assay: FACS on MDA-MB-453 cells (HER3 single-positive)
T2 construct: whole, on cells; also called HER3 single-positive cells (MDA-MB-453)

[4] = target: T2, Human HER3 protein on the cell surface; assay: cell-based or functional assay
[5] = target: T3, His-tagged human HER3 antigen (human, UniProt P21860 20-643); assay: SPR, Biacore 8K; antibody captured, His-tagged human HER3 antigen 6.25-400 nM as analyte; 1:1 Langmuir
T3 construct: Soluble antigen used as analyte in SPR; not shown: His tag

[6] = target: T1, Human MET protein on the cell surface; assay: cell-based or functional assay
[7] = target: T4, His-tagged human MET antigen (human, UniProt P08581 25-932); assay: SPR, Biacore 8K; antibody captured, His-tagged human MET antigen 6.25-400 nM as analyte; 1:1 Langmuir
T4 construct: Soluble antigen used as analyte in SPR; not shown: His tag

[8] = target: T3, His-tagged human HER3 antigen; assay: SPR, Biacore 8K, protein A chip; ADC captured, His-tagged antigen 6.25-400 nM as analyte; 1:1 Langmuir

T1 sequence (P08581 25-1390): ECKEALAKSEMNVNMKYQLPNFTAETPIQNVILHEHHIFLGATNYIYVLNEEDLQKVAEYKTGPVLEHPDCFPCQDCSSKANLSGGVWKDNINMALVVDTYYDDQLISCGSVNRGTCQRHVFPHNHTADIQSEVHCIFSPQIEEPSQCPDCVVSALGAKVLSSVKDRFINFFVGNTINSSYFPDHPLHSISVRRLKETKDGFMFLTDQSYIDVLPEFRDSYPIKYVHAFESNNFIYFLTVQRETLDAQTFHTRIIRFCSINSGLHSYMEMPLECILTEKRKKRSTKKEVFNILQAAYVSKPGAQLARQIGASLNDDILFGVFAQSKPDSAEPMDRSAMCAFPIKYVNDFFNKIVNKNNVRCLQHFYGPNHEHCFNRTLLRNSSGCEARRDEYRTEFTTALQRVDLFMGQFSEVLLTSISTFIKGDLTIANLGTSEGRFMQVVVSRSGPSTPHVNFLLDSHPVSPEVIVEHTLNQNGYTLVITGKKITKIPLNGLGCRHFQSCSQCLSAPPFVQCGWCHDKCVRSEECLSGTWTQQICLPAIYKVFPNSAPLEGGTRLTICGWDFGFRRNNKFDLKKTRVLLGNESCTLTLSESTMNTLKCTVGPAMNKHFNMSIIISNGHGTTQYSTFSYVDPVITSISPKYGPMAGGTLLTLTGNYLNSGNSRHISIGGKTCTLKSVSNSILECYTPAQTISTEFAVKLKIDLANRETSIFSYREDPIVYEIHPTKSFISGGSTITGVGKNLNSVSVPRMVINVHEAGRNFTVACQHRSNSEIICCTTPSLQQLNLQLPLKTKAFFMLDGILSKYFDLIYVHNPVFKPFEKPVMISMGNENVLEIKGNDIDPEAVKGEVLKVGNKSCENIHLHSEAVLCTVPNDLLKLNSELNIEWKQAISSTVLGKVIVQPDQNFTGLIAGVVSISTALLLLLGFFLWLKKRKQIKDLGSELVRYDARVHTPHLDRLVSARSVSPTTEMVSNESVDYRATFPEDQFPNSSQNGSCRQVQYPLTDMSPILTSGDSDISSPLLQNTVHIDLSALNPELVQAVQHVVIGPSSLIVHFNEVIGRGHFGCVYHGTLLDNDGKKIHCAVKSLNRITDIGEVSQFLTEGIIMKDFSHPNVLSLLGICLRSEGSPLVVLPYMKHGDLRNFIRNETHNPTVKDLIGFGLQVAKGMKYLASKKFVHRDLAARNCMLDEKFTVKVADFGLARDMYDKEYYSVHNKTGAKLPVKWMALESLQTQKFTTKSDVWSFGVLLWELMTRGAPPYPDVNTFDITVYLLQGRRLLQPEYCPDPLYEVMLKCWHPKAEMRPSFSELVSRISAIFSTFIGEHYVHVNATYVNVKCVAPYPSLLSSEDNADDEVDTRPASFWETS
T4 sequence (P08581 25-932 limits assumed): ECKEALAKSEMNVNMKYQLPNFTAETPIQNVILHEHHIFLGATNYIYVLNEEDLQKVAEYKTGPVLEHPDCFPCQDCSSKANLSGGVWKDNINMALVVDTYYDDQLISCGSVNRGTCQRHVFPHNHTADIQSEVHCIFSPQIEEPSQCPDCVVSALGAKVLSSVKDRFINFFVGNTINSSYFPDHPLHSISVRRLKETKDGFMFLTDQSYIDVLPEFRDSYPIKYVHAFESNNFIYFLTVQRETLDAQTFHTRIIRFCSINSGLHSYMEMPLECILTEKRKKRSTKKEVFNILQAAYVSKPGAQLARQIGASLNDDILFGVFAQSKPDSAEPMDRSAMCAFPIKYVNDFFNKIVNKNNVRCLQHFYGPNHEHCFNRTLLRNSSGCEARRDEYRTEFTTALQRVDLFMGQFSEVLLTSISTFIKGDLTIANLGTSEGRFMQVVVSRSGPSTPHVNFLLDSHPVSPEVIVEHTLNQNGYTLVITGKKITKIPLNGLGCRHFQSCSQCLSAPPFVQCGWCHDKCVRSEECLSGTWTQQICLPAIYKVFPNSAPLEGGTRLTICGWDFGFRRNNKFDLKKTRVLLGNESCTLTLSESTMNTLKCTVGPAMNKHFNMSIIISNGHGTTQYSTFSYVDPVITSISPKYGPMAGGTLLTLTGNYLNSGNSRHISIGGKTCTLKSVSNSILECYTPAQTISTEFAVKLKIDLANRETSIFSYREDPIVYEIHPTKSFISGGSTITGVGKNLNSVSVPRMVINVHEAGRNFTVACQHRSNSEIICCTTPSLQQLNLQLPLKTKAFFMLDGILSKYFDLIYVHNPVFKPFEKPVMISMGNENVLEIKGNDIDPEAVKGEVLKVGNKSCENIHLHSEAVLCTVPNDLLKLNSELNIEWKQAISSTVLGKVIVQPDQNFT

B1: Anti-HER3/MET bispecific antibody P3-A (bispecific antibody, human IgG1, kappa)
heavy 1: not shown
light 1: QAVLTQPSSVSGAPGQRVTISCTGSSSNIGAGYDVHWYQQLPGTAPKLLIYGNSNRPSGVPDRFSGSKSGTSASLAITGLQAEDEADYYCQSYDSSLSGVFGTGTQLTVLGGGGSGIPPKIECLPIDISIDEGKVLTVASAFTGEPTPEVTWSTGGRKIHSQEQGRFHIENTDDSTTLTIKDVQKQDGGLYTLTLRNEFGSDSATVNIHIRSI
heavy 2: QVQLVQSGGGLVQPGRSLRLSCAASGFTFDDYAMHWVRQAPGKGLEWVSGISWNSGSIGYADSVKGRFTISRDNAKNSLYLQMNSLRAEDTALYYCAKEGLPGLDYWGQGTLVTVSSASTKGPSVFPLAPSSKSTSGGTAALGCLVKDYFPEPVTVSWNSGALTSGVHTFPAVLQSSGLYSLSSVVTVPSSSLGTQTYICNVNHKPSNTKVDKKVEPKSCDKTHTCPPCPAPELLGGPSVFLFPPKPKDTLMISRTPEVTCVVVDVSHEDPEVKFNWYVDGVEVHNAKTKPREEQYNSTYRVVSVLTVLHQDWLNGKEYKCKVSNKALPAPIEKTISKAKGQPREPQVCTLPPSREEMTKNQVSLSCAVKGFYPSDIAVEWESNGQPENNYKTTPPVLDSDGSFFLVSKLTVDKSRWQQGNVFSCSVMHEALHNHYTQKSLSLSPGK
light 2: DIQMTQSPSSLSASIGDRATITCRASQHVGTYLNWYQQKPGKTPKLLISGAANLQSGVPSRFSGSGSGTDFTLTISSLQPEDFATYYCQQSYNTPPFSFGQGTKVEIKRTVAAPSVFIFPPSDEQLKSGTASVVCLLNNFYPREAKVQWKVDNALQSGNSQESVTEQDSKDSTYSLSSTLTLSKADYEKHKVYACEVTHQGLSSPVTKSFNRGEC
In the case of B1, the “Minimum cell viability (%)” value [1] is reported as 16.4% and the binding result [2] is reported as “binds”.

B2: Anti-HER3/MET bispecific antibody 5D5-A (bispecific antibody, human IgG1, kappa)
heavy 1: not shown
light 1: DIQMTQSPSSLSASVGDRVTITCKSSQSLLYTSSQKNYLAWYQQKPGKAPKLLIYWASTRESGVPSRFSGSGSGTDFTLTISSLQPEDFATYYCQQYYAYPWTFGQGTKVEIKGGGGSGIPPKIECLPIDISIDEGKVLTVASAFTGEPTPEVTWSTGGRKIHSQEQGRFHIENTDDSTTLTIKDVQKQDGGLYTLTLRNEFGSDSATVNIHIRSI
heavy 2: B1 heavy 2
light 2: B1 light 2
With B2 the “Minimum cell viability (%)” value [1] was 20.5% and the binding result [2] was “binds”.

B3: Anti-HER3/MET bispecific antibody 2232-02 (S3-A) (bispecific antibody, human IgG1, kappa)
heavy 1: not shown
light 1: DIVLTQSPDSLAVSLGERATINCRADKSVSTSTYNYLHWYQQKPGQPPKLLIYLASNLASGVPDRFSGSGSGTDFTLTISSLQAEDVAVYYCQHSRDLPPTFGQGTKLEIKGGGGSGIPPKIECLPIDISIDEGKVLTVASAFTGEPTPEVTWSTGGRKIHSQEQGRFHIENTDDSTTLTIKDVQKQDGGLYTLTLRNEFGSDSATVNIHIRSI
heavy 2: B1 heavy 2
light 2: B1 light 2
In the case of B3, the EC50 [3] is reported as 2.64 nM, the Maximum fluorescence value [3] is reported as 1870 and the “Minimum cell viability (%)” value [4] is reported as 25.8%.

B4: Anti-MET antibody S3 (antibody, human IgG2, kappa, V domains shown)
VH: QVQLVESGGGVVQPGRSLRLSCAASGFSLSNYGVHWVRQAPGKGLEWLAVIWSGGSTNYAAAFVSRLTISKDNSKNTVYLQMNSLRAEDTAVYYCARNHDNPYNYAMDYWGQGTTVTVSS
VL: DIVLTQSPDSLAVSLGERATINCRADKSVSTSTYNYLHWYQQKPGQPPKLLIYLASNLASGVPDRFSGSGSGTDFTLTISSLQAEDVAVYYCQHSRDLPPTFGQGTKLEIKR
B4 was tested, and the Maximum fluorescence value [3] was 77 and the “Minimum cell viability (%)” value [4] was 97.3%.

B5: Antibody A N93Q (antibody, human IgG1, kappa, V domains shown)
VH: QVQLVQSGGGLVQPGRSLRLSCAASGFTFDDYAMHWVRQAPGKGLEWVSGISWNSGSIGYADSVKGRFTISRDNAKNSLYLQMNSLRAEDTALYYCAKEGLPGLDYWGQGTLVTVSS
VL: DIQMTQSPSSLSASIGDRATITCRASQHVGTYLNWYQQKPGKTPKLLISGAANLQSGVPSRFSGSGSGTDFTLTISSLQPEDFATYYCQQSYQTPPFSFGQGTKVEIKR
notes: Differs from antibody A only by N to Q at position 93 of VL
B5 was tested, and the Kd [5] was 51.4 nM, the koff [5] was 0.0295 s⁻¹ and the kon [5] was 573000 M⁻¹ s⁻¹.

B6: Antibody A N93S (antibody, human IgG1, kappa, V domains shown)
VH: B5 VH
VL: B5 VL with Q93S
notes: Differs from antibody A only by N to S at position 93 of VL
B6 was tested, and the Kd [5] was 32.6 nM, the koff [5] was 0.0215 s⁻¹ and the kon [5] was 659000 M⁻¹ s⁻¹.

B7: Antibody A N93T (antibody, human IgG1, kappa, V domains shown)
VH: B5 VH
VL: B5 VL with Q93T
notes: Differs from antibody A only by N to T at position 93 of VL
For B7, the Kd [5] was 97.9 nM, the koff [5] was 0.0329 s⁻¹ and the kon [5] was 336000 M⁻¹ s⁻¹.

B8: Antibody A T94V (antibody, human IgG1, kappa, V domains shown)
VH: B5 VH
VL: B5 VL with Q93N, T94V
notes: Differs from antibody A only by T to V at position 94 of VL
Work on B8 yielded a Kd [5] of 15 nM, a koff [5] of 0.0108 s⁻¹ and a kon [5] of 717000 M⁻¹ s⁻¹.

B9: Anti-MET antibody A13 (antibody, human IgG1, kappa, V domains shown)
VH: QVQLVQSGAEVKKPGASVKVSCEASGYTFTSYGFSWVRQAPGQGLEWMGWISASNGNTYYAQKLQGRVTMTTDTSTSSAYMELRSLRSDDTAVYYCARVYADYADYWGQGTLVTVSS
VL: DIQMTQSPSSVSASVGDRVTITCRASQGINTWLAWYQQKPGKAPKLLIYAASSLKSGVPSRFSGSGSGADFTLTISSLQPEDFATYYCQQANSFPLTFGGGTKVEIKR
For B9, the “Endocytosis ratio at 0 h (FACS)” value [6] was 0%, the “Endocytosis ratio at 0.5 h (FACS)” value [6] was 25.7% and the “Endocytosis ratio at 2 h (FACS)” value [6] was 45.7%. The “Endocytosis ratio at 6 h (FACS)” value [6] was 57.6%, the Kd [7] was 6.55 nM and the koff [7] was 0.000614 s⁻¹. The kon [7] was 93800 M⁻¹ s⁻¹.

B10: Antibody A13 N30Q (antibody, human IgG1, kappa, V domains shown)
VH: B9 VH
VL: B9 VL with N30Q
notes: Differs from antibody A13 only by N to Q at position 30 of VL
B10 gave a Kd [7] of 17.6 nM, a koff [7] of 0.00146 s⁻¹ and a kon [7] of 83000 M⁻¹ s⁻¹.

B11: Antibody A13 N30S (antibody, human IgG1, kappa, V domains shown)
VH: B9 VH
VL: B9 VL with N30S
notes: Differs from antibody A13 only by N to S at position 30 of VL
Binder B11 has a Kd [7] of 7.69 nM, a koff [7] of 0.000776 s⁻¹ and a kon [7] of 101000 M⁻¹ s⁻¹.

B12: Antibody A13 N30T (antibody, human IgG1, kappa, V domains shown)
VH: B9 VH
VL: B9 VL with N30T
notes: Differs from antibody A13 only by N to T at position 30 of VL
B12 was tested, and the Kd [7] was 17 nM, the koff [7] was 0.0018 s⁻¹ and the kon [7] was 106000 M⁻¹ s⁻¹.

B13: Antibody A13 T31V (antibody, human IgG1, kappa, V domains shown)
VH: B9 VH
VL: B9 VL with T31V
notes: Differs from antibody A13 only by T to V at position 31 of VL
B13 showed a Kd [7] of 93.1 nM, a koff [7] of 0.00521 s⁻¹ and a kon [7] of 56000 M⁻¹ s⁻¹.

B14: Anti-HER3/MET bispecific antibody A9-A (bispecific antibody, human IgG1, kappa)
heavy 1: not shown
light 1: EIVLTQSPGTLSLSPGERATLSCRASQSVSNNYLAWYQQKPGQAPRLLIFGASSRATGIPDRFSGSGSGTDFTLTISRLEPEDFAVYYCQQYDISPMYSFGQGTKLEMKGGGGSGIPPKIECLPIDISIDEGKVLTVASAFTGEPTPEVTWSTGGRKIHSQEQGRFHIENTDDSTTLTIKDVQKQDGGLYTLTLRNEFGSDSATVNIHIRSI
heavy 2: B1 heavy 2
light 2: B1 light 2
In the case of B14, the “Minimum cell viability (%)” value [1] is reported as 15.9% and the binding result [2] is reported as “binds”.

B15: Anti-HER3/MET bispecific antibody P8-A (bispecific antibody, human IgG1, kappa)
heavy 1: not shown
light 1: NFMLTQPHSVSESPGKTVTISCTRSSGSIAFDYVQWYQQRPGSAPTTVIYEDNQRPSGVPDRFSASIDSSSNSASLTISALKTEDEADYYCQSYDNSNSWVFGGGTKLTVLGGGGSGIPPKIECLPIDISIDEGKVLTVASAFTGEPTPEVTWSTGGRKIHSQEQGRFHIENTDDSTTLTIKDVQKQDGGLYTLTLRNEFGSDSATVNIHIRSI
heavy 2: B1 heavy 2
light 2: B1 light 2
In the case of B15, the “Minimum cell viability (%)” value [1] is reported as 12.1%.

B16: Anti-HER3/MET antibody-drug conjugate ADC-2 (bispecific antibody, human IgG1, kappa)
heavy 1: not shown
light 1: B3 light 1
heavy 2: B1 heavy 2
light 2: B1 light 2
modifications: compound 9-A on reduced cysteines, positions not given; compound 9-A (exatecan derivative linker-drug) on reduced cysteines, positions not given; target DAR 6 for the whole molecule
notes: target DAR 6; distribution of the drug over the chains not reported for ADC-2
B16 was tested, and the Kd [8] was 19.7 nM, the koff [8] was 0.0108 s⁻¹ and the kon [8] was 546000 M⁻¹ s⁻¹.
